{"source": "paper PMC11681868", "assay_in_all_cases": "ITC; iTC200; 5 μM scFv in the cell, 50 μM peptide in the syringe; samples dialyzed against PBS; triplicate", "key": {"[1]": {"biological_target": "rabbit antibody A4 scFv (wild type) (rabbit)", "sequence (heavy, as listed by the source, chain 1 of 2)": "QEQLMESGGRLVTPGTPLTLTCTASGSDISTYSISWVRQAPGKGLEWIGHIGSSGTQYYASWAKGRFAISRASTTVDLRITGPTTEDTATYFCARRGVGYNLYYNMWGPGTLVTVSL", "sequence (light, as listed by the source, chain 2 of 2)": "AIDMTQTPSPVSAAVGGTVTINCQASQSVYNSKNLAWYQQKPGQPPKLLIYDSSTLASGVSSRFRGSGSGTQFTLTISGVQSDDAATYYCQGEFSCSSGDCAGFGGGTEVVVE"}, "[2]": {"biological_target": "rabbit antibody A4 scFv H-S53A (rabbit)", "sequence (heavy, as listed by the source, chain 1 of 2)": "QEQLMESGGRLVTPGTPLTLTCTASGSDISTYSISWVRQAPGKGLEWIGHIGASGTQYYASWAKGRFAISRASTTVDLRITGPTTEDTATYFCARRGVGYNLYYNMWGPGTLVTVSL"}, "[3]": {"biological_target": "rabbit antibody A4 scFv H-S54A (rabbit)", "sequence (heavy, as listed by the source, chain 1 of 2)": "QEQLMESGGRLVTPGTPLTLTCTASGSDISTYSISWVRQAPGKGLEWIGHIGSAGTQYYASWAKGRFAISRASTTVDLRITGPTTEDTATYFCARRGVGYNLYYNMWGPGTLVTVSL"}, "[4]": {"biological_target": "rabbit antibody A4 scFv H-T56A (rabbit)", "sequence (heavy, as listed by the source, chain 1 of 2)": "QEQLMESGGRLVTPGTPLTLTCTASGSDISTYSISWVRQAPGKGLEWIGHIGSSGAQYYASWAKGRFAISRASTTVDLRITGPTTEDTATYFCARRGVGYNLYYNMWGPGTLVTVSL"}, "[5]": {"biological_target": "rabbit antibody C7 scFv (wild type) (rabbit)", "sequence (heavy, as listed by the source, chain 1 of 2)": "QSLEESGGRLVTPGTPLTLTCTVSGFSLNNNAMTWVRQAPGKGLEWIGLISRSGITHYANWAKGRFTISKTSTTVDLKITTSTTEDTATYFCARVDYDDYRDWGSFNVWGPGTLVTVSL", "sequence (light, as listed by the source, chain 2 of 2)": "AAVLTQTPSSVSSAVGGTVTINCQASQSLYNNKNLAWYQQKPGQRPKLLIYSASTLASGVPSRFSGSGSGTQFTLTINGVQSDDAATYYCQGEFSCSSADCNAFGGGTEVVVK"}, "[6]": {"biological_target": "rabbit antibody C7 scFv H-S52A (rabbit)", "sequence (heavy, as listed by the source, chain 1 of 2)": "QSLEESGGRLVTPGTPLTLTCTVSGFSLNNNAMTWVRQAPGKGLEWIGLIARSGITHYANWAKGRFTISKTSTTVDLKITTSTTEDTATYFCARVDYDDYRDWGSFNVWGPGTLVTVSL"}, "[7]": {"biological_target": "rabbit antibody C7 scFv H-S54A (rabbit)", "sequence (heavy, as listed by the source, chain 1 of 2)": "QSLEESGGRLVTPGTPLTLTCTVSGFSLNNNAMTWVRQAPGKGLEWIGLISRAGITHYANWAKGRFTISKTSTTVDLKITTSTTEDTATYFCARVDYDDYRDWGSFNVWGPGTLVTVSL"}}, "note": "Where no end group is shown, it is not given here. [ ]: non-standard residue; d: D form. pS = N[C@@H](COP(=O)(O)O)C(=O)O"}
{"binder": "RPHFPQF[pS]YSAS", "note": "[phosphorylated Akt peptide]", "values": [{"measurement": "Kd", "setting": "[1]", "value": 3.34, "unit": "nM"}, {"measurement": "dH", "setting": "[1]", "value": -24.4, "unit": "kcal/mol"}, {"measurement": "Kd", "setting": "[2]", "value": 3.55, "unit": "nM"}, {"measurement": "dH", "setting": "[2]", "value": -24.9, "unit": "kcal/mol"}, {"measurement": "Kd", "setting": "[3]", "value": 6.95, "unit": "nM"}, {"measurement": "dH", "setting": "[3]", "value": -23.5, "unit": "kcal/mol"}, {"measurement": "Kd", "setting": "[4]", "value": 4, "unit": "nM"}, {"measurement": "dH", "setting": "[4]", "value": -23, "unit": "kcal/mol"}, {"measurement": "Kd", "setting": "[5]", "value": 26.9, "unit": "nM"}, {"measurement": "dH", "setting": "[5]", "value": -14.4, "unit": "kcal/mol"}, {"measurement": "Kd", "setting": "[6]", "value": 664, "unit": "nM"}, {"measurement": "dH", "setting": "[6]", "value": -11.1, "unit": "kcal/mol"}, {"measurement": "Kd", "setting": "[7]", "value": 95.3, "unit": "nM"}, {"measurement": "dH", "setting": "[7]", "value": -13.3, "unit": "kcal/mol"}]}
